The values that follow come from US20230088461A1 (NANJING LEGEND BIOTECH, published 2023).

Read-outs that look alike come from different tables or passages of the source.

In assay [1] the target is T1, cynomolgus monkey GPC3 on SK-HEP-1-cmGPC3 cells (cynomolgus monkey, UniProt A0A2K5VK50 24-553).
T1 construct: whole, on cells
Nature of the assay: flow cytometry on SK-HEP-1-cmGPC3 cells, PE anti-mouse IgG Fc. Further: test concentration or dose not given here.

Assay [2] has as its target T2, mouse GPC3 on SK-HEP-1-muGPC3 cells (mouse, UniProt Q8CFZ4 25-553).
T2 construct: whole, on cells
Nature of the assay: flow cytometry on SK-HEP-1-muGPC3 cells, PE anti-mouse IgG Fc. Further: test concentration or dose not given here.

The target of the next assay is T3, recombinant human GPC3 (human, UniProt P51654 25-559, limits assumed).
T3 construct: also called hGPC3
Nature of the assay: SPR (Biacore), antibody as ligand, recombinant human GPC3 as analyte, 1:1 Langmuir model.

The target in assay [3] is T4, human GPC3 on SK-HEP-1-huGPC3 cells (human, UniProt P51654 25-554).
T4 construct: whole, on cells
Nature of the assay: flow cytometry on SK-HEP-1-huGPC3 cells, PE anti-mouse IgG Fc. Further: test concentration or dose not given here.

The target of assay [4] is T5, GPC3 (analyte of Tables 9 and 10) (UniProt P51654 25-559, limits assumed). The experiment in a line: SPR (Biacore T200), purified antibody captured through Fc, GPC3 as analyte, 1:1 model.
Method: (§1) Antibodies were immobilized on the sensor chip through Fc capture method. GPC3 was used as the analyte. The surface was regenerated before the injection of another antibody. The process was repeated until all antibodies are analyzed. The off-rates of antibodies were obtained from fitting the experimental data locally to 1:1 interaction model using the Biacore T200 evaluation software. The data of dissociation (kd) and association (ka) rate constants (KD) were calculated from the ration of kd over ka.
Assay [5] concerns the target T5, GPC3 (analyte of Tables 9 and 10). The description is as above. The source holds these as a separate data set.
Method: as §1

T2 sequence (Q8CFZ4 25-553 limits assumed): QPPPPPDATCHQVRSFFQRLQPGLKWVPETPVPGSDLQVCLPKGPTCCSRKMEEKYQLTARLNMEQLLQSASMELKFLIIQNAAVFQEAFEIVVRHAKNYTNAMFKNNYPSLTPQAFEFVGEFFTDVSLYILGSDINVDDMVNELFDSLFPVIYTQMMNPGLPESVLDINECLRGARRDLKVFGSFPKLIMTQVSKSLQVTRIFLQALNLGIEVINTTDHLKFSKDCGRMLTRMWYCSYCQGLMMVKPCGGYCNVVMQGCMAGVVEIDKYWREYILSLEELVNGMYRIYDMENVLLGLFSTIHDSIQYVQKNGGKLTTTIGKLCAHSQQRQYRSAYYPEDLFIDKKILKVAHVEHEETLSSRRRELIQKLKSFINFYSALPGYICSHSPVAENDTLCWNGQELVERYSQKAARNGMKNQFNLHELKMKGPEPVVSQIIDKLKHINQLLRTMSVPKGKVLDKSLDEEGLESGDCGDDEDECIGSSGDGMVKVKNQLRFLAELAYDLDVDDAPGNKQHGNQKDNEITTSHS
Method for recombinant human GPC3: The binding kinetics of the antibodies to recombinant human GPC3 were measured by the surface plasmon resonance (SPR) (e.g., Biacore). Binding rate (Kₐ) and dissociation rates (Kd) were calculated using a simple one-to-one Langmuir binding model (Biacore Evaluation Software). The equilibrium dissociation constant (KD) is calculated as the ratio Kd/Kₐ.

B1: LAb19301 (antibody, V domains shown)
VH: DVQLQESGPDLVKPSQSLSLTCTVTGYSITSGFSWHWIRQFPGHKLEWMGFMQYSGNTNYNPSLKSRISFTRDTSKNQFFLQLKSVTPEDTATYYCARREEGAWFAYWGQGTLVTVSA
VL: DVVMTQTPLSLPVSLGDQASISCGSSQSLVHSNGNTYLHWYLQKPGQSPKLLIYKVSNRFSGVPDRFSGSGSGTDFTLKISRVEAEDLGVYFCSQSTHFPFTFGSGTKLEIK
notes: Mouse monoclonal antibody purified from hybridoma supernatant
Consider B1, for which the “Positive population, %” value in assay [1] turned out to be 18.5%. Also, the “Positive population, %” value in assay [2] was 17.5%. In addition, in the assay with recombinant human GPC3, the Kd amounted to 122 nM, the koff was 0.00207 s⁻¹ and the kon worked out at 16900 M⁻¹ s⁻¹. The “Positive population, %” value in assay [3] came out at 72.6%.

B2: LAb19306 (antibody, V domains shown)
VH: EVQLVESGGGLVKPGGSLKLSCAASGFAFSTYDMSWVRQTPERRLEWVAYISSGGATTYYPDSVKGRFTISRDNAKNTLYLQMSSLKSEDTAMYYCARLSLMIRGWFAYWGQGTLVTVSA
VL: DVVMTQTPLSLPVSLGDQASISCRSSQSLVHSNGNTYLHWYLQKPGQSPKLLIYKVSNRFSGVPDRFSGSGSGTDFTLKISRVEAEDLGVYFCSQSTHVPYTFGGGTKLEIK
notes: as for B1
As for B2, the “Positive population, %” value in assay [1] was 3.32%. Moreover, the “Positive population, %” value in assay [2] turned out to be 75.8%. In the assay with recombinant human GPC3, the Kd was found to be 28.4 nM, the koff was determined as 0.00077 s⁻¹ and the kon came to 27100 M⁻¹ s⁻¹. In addition, in assay [3], the “Positive population, %” value is 86.2%.

B3: LAb19308 (antibody, V domains shown)
VH: EVQLVESGGGLVKPGGSLKLSCAASGFAFITYGMSWVRQTPEKRLEWVAYISSGGANTYYPDSVKGRFTISRDNAKNTLYLQMSSLKSEDTAMYYCASLSTLVRGWFAYWGQGTLVTVSA
VL: DVVMTQTPLSLPVSLGDQASISCRSSQSLVHSNGNTYLHWYLQKPGQSPKLLIYKVSNRFSGVPDRFSGSGSGTDFTLKISRVEAEDLGVYFCSQSTHVPYTFGGGTKLEIK
notes: as for B1
As to B3, the “Positive population, %” value in assay [1] stood at 9.55%. The “Positive population, %” value in assay [2] came out at 82.4%. In addition, in the assay with recombinant human GPC3, the Kd is 41.4 nM, the off-rate constant (koff) is 0.00102 s⁻¹ and the kon came out at 24700 M⁻¹ s⁻¹. The “Positive population, %” value in assay [3] was found to be 91.4%.

B4: LAb19302 (antibody, V domains shown)
VH: AVQLVESGGGLVRPGGSLKLSCAASGFAFSTYGMSWVRQTPETRLEWVAYISSGGATTYYPDSVKGRFTISRDNAKNTLYLQMSSLKSEDTAMYYCASLSIMIRGWFAYWGQGTLVTVSA
VL: DVVMTQTPLSLPVSLGDQASISCRSSQSLVHSNGNTYLHWYLQKPGQSPKVLIYKVSNRFSGVPDRFSGSGSGTDFTLKISRVEAEDLGVYFCSQSTHVPYTFGGGTKLEIK
notes: as for B1
In the case of B4, in assay [1], the “Positive population, %” value is 12.3%. Besides, the “Positive population, %” value in assay [2] was 81.8%. Besides, in the assay with recombinant human GPC3, the Kd was found to be 71.2 nM, the koff was found to be 0.00184 s⁻¹ and the kon was 25800 M⁻¹ s⁻¹. Also, the “Positive population, %” value in assay [3] came out at 91.5%.

B5: 9VH1VL3-hIgG1 (antibody, V domains shown)
VH: QVQLVQSGAEVKKPGASVKVSCKASGYTFTDYEMHWVRQAPGQRLEWMGGIDPETGNTAYSQKFKGRVTITRDTSASTAYMELSSLRSEDTAVYYCARYYSFAYWGQGTLVTVSS
VL: DIVMTQSPDSLAVSLGERATINCRSSQTIVHSNGNTYLEWYQQKPGQPPKLLIYKVSNRFSGVPDRFSGSGSGTDFTLTISSLQAEDVAVYYCFQVSHVPYTFGGGTKLEIKR
notes: Humanized LAb19309, full-length human IgG1/kappa; also called 9VH1VL3-hIgG1 mAb
For B5, in assay [4], the affinity, expressed as Kd, was 1.53 nM; the koff was 0.00014 s⁻¹; the kon was determined as 91300 M⁻¹ s⁻¹.

B6: 5VH2VL2-hIgG1 (antibody, V domains shown)
VH: QVQLVQSGAEVKKPGASVKVSCKASGYTFTAYEMHWVRQAPGQGLEWMGGIDPETGNTAYSQNFKGRVTMTRDTSTSTVYMELSSLRSEDTAVYYCARYYSFAYWGQGTLVTVSS
VL: DIVMTQSPLSLPVTPGEPASISCRSSQTIVHSNGNTYLEWYLQKPGQSPQLLIYKVSNRFSGVPDRFSGSGSGTDFTLKISRVEAEDVGVYYCFQVSHVPYTFGGGTKLEIKR
notes: Humanized LAb19305, full-length human IgG1/kappa
With B6, in assay [5], binding was put at a Kd of 0.572 nM, the koff amounted to 8.91e-05 s⁻¹ and the on-rate (kon) was determined as 156000 M⁻¹ s⁻¹.

B7: 9VH3VL3-hIgG1 (antibody, V domains shown)
VH: QVQLVQSGAEVKKPGASVKVSCKASGYTFTDYEMHWVRQATGQGLEWMGGIDPETGNTAYSQKFKGRVTMTRNTSISTAYMELSSLRSEDTAVYYCARYYSFAYWGQGTLVTVSS
VL: DIVMTQSPDSLAVSLGERATINCRSSQTIVHSNGNTYLEWYQQKPGQPPKLLIYKVSNRFSGVPDRFSGSGSGTDFTLTISSLQAEDVAVYYCFQVSHVPYTFGGGTKLEIKR
notes: Humanized LAb19309, full-length human IgG1/kappa
In assay [4], B7 registered a Kd of 1.13 nM, a koff of 0.000145 s⁻¹ and a kon of 129000 M⁻¹ s⁻¹.

B8: 5VH1VL2-hIgG1 (antibody, V domains shown)
VH: QVQLVQSGAEVKKPGASVKVSCKASGYTFTAYEMHWVRQAPGQRLEWMGGIDPETGNTAYSQNFKGRVTITRDTSASTAYMELSSLRSEDTAVYYCARYYSFAYWGQGTLVTVSS
VL: DIVMTQSPLSLPVTPGEPASISCRSSQTIVHSNGNTYLEWYLQKPGQSPQLLIYKVSNRFSGVPDRFSGSGSGTDFTLKISRVEAEDVGVYYCFQVSHVPYTFGGGTKLEIKR
notes: as for B6
In assay [5], B8 yielded a Kd of 1.1 nM, a koff of 0.000117 s⁻¹ and an on-rate constant (kon) of 107000 M⁻¹ s⁻¹.

B9: 5VH2VL3-hIgG1 (antibody, V domains shown)
VH: QVQLVQSGAEVKKPGASVKVSCKASGYTFTAYEMHWVRQAPGQGLEWMGGIDPETGNTAYSQNFKGRVTMTRDTSTSTVYMELSSLRSEDTAVYYCARYYSFAYWGQGTLVTVSS
VL: DIVMTQSPDSLAVSLGERATINCRSSQTIVHSNGNTYLEWYQQKPGQPPKLLIYKVSNRFSGVPDRFSGSGSGTDFTLTISSLQAEDVAVYYCFQVSHVPYTFGGGTKLEIKR
notes: as for B6
For B9, in assay [5], the Kd was determined as 0.544 nM, the koff was 8.76e-05 s⁻¹ and the kon stood at 161000 M⁻¹ s⁻¹.

B10: 9VH3VL2-hIgG1 (antibody, V domains shown)
VH: QVQLVQSGAEVKKPGASVKVSCKASGYTFTDYEMHWVRQATGQGLEWMGGIDPETGNTAYSQKFKGRVTMTRNTSISTAYMELSSLRSEDTAVYYCARYYSFAYWGQGTLVTVSS
VL: DIVMTQSPLSLPVTPGEPASISCRSSQTIVHSNGNTYLEWYLQKPGQSPQLLIYKVSNRFSGVPDRFSGSGSGTDFTLKISRVEAEDVGVYYCFQVSHVPYTFGGGTKLEIKR
notes: Humanized LAb19309, full-length human IgG1/kappa; also called 9VH3VL2-hIgG1 mAb
In assay [4], B10 returned a Kd of 0.672 nM, a koff of 9.01e-05 s⁻¹ and a kon of 134000 M⁻¹ s⁻¹.

B11: Chimeric LAb19309-hIgG1 (antibody, V domains shown)
VH: QVQLQQSGAELVRPGASVTLSCKASGYTFTDYEMHWVKQTPVHGLEWIGGIDPETGNTAYSQKFKGKATLTADKSSSTAYMEVRSLTSEDSAVYYCTRYYSFAYWGQGTLVTVSA
VL: DVLMTQTPLSLPVNLGDQASISCRSSQTIVHSNGNTYLEWYLQKPGQSPKLLIYKVSNRFSGVPDRFSGSGSGTDFTLRISRVEAEDLGVYYCFQVSHVPYTFGGGTKLEIKR
notes: The mouse VH/VL numbers follow the parallel order of the lists, as for LAb19309
For the molecule B11, in assay [4], the Kd amounted to 3.56 nM, the koff amounted to 0.000239 s⁻¹ and the kon was determined as 67100 M⁻¹ s⁻¹.

B12: LAb19303 (antibody, V domains shown)
VH: QVQLQQSGAELVRPGASVTLSCEASGYTFNDYEMHWVKQTPVHGLEWIGAIDPETGATAYNQKFKGKATLTADKSSSTAYMELRSLTSEDTAVYYCTRYYSFAYWGQGTLVTVSA
VL: DVLMTQTPLSLPVSLGDQASISCRSSQSFVHSNGNTYLQWYLQKPGQSPKLLIYKVSNRFSGVPDRFSGSGSGTDFTLKISRVEAEDLGVYYCFQGSHVPYTFGGGTKLEIK
notes: as for B1
As to B12, in assay [2], the “Positive population, %” value was determined as 0.72%.

B13: LAb19304 (antibody, V domains shown)
VH: QVQLQQSGAELVRPGASVTLSCKASGYTFTAYEMHWVKQTPVHGLEWIGGIDPETGNTAYSQKFKGKATLTADKSSSTAYMEVRSLTSEDSAVYYCSRYYSFAYWGQGTLVTVSA
VL: DVLMTQTPLSLPVSLGDQASISCRSSQTIVHSNGNTYLEWYLQKPGQSPKLLIYKVSNRFSGVPDRFSGSGSGTDFTLKISRVEAEDLGVYYCFQVSHVPYTFGGGTKLEIK
notes: as for B1
On to B13, for which the “Positive population, %” value in assay [1] turned out to be 94.6%. For the same molecule, the “Positive population, %” value in assay [2] is 25.6%. For the same molecule, in the assay with recombinant human GPC3, the equilibrium dissociation constant (Kd) was 5.11 nM, the koff was 0.000138 s⁻¹ and the on-rate constant (kon) came out at 27000 M⁻¹ s⁻¹. In addition, in assay [3], the “Positive population, %” value turned out to be 91.9%.

B14: LAb19305 (antibody, V domains shown)
VH: QVQLQQSGAELVRPGASVTLSCKASGYTFTAYEMHWVKQTPVYGLEWIGGIDPETGNTAYSQNFKGKATLTADKSSSTAYMEVRSLTSEDSAVYYCSRYYSFAYWGQGTLVTVSA
VL: DVLMTQTPLSLPVSLGDQASISCRSSQTIVHSNGNTYLEWYLQKPGQSPKLLIYKVSNRFSGVPDRFSGSGSGTDFTLKISRVEAEDLGVYYCFQVSHVPYTFGGGTKLEIK
notes: as for B1
Take B14: in assay [1], the “Positive population, %” value stood at 94.2%. Besides, in assay [2], the “Positive population, %” value stood at 17%. Besides, in the assay with recombinant human GPC3, the Kd worked out at 4.19 nM, the koff is 0.00013 s⁻¹ and the kon is 31100 M⁻¹ s⁻¹. In assay [3], the “Positive population, %” value came out at 92.6%.

B15: Chimeric LAb19305-hIgG1 (antibody, V domains shown)
VH: QVQLQQSGAELVRPGASVTLSCKASGYTFTAYEMHWVKQTPVYGLEWIGGIDPETGNTAYSQNFKGKATLTADKSSSTAYMEVRSLTSEDSAVYYCSRYYSFAYWGQGTLVTVSA
VL: DVLMTQTPLSLPVSLGDQASISCRSSQTIVHSNGNTYLEWYLQKPGQSPKLLIYKVSNRFSGVPDRFSGSGSGTDFTLKISRVEAEDLGVYYCFQVSHVPYTFGGGTKLEIKR
notes: The mouse VH/VL numbers follow the parallel order of the lists, as for LAb19305
In assay [5], B15 had a Kd of 0.84 nM, a koff of 0.000103 s⁻¹ and a kon of 123000 M⁻¹ s⁻¹.
